# Biological target: Flt-1 (VEGFR-1, fms-like tyrosine kinase-1) of wild-type mice (WF) (mouse) (UniProt P35969)
# Experiment: cell-based or functional assay
# Sequence of UniProt P35969 (P35969 23-1333 S1181G): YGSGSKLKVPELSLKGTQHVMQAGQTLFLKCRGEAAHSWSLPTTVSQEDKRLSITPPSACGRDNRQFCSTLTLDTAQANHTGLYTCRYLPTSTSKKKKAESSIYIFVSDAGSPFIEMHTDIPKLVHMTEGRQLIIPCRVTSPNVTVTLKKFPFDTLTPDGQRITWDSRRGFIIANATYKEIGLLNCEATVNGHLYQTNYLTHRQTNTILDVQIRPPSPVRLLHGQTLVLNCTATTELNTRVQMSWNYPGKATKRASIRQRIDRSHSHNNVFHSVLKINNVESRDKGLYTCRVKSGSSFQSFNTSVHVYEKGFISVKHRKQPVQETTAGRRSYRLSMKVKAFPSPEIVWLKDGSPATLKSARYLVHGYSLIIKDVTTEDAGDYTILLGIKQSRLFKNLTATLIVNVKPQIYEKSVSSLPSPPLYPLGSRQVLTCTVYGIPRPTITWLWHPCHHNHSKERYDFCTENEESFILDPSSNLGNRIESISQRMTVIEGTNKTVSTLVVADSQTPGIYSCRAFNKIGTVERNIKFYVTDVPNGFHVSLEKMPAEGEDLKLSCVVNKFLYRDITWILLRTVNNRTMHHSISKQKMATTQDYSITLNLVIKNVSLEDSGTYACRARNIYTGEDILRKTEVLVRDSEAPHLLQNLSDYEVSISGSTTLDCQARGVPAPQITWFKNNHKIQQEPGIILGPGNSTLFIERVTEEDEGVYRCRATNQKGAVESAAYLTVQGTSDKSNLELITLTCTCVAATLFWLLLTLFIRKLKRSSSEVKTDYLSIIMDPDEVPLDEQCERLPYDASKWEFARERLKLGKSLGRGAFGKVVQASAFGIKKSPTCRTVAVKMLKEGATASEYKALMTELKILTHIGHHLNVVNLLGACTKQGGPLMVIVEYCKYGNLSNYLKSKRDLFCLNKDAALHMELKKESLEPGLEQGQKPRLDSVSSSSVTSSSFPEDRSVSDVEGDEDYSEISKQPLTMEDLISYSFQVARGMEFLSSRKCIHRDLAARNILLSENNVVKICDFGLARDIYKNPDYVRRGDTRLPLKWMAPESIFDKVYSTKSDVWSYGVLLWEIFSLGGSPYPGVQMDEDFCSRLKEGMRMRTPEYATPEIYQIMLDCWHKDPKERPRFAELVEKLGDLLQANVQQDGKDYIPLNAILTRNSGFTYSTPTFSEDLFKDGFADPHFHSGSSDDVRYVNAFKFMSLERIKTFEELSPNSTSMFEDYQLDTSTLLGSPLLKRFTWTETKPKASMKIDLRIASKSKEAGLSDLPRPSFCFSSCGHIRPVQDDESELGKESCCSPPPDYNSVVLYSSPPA
substance,measurement,value
VEGF (R&D社製) (ligand),"MMP-9誘導 (肺組織培養, ゼラチン基質ザイモグラフィー)",40 ng/mL
